Measurements published in PMC10199020.

Target: NL-IL23R co-expressed with IL12Rβ1 (IL-23 receptor on cells) (UniProt Q5VWK5)
Test: FRET or BRET; NanoBRET competition on living transfected HEK293T cells; 300 pM IL23-TMR displaced by unlabelled antagonist (concentration series or a single concentration); 1 h at 37 °C in HBSS with 1 mg/mL BSA

Sequence of NL-IL23R co-expressed with IL12Rβ1 (IL-23 receptor on cells) (Q5VWK5 24-629, chain 1 of 2, other chains not shown): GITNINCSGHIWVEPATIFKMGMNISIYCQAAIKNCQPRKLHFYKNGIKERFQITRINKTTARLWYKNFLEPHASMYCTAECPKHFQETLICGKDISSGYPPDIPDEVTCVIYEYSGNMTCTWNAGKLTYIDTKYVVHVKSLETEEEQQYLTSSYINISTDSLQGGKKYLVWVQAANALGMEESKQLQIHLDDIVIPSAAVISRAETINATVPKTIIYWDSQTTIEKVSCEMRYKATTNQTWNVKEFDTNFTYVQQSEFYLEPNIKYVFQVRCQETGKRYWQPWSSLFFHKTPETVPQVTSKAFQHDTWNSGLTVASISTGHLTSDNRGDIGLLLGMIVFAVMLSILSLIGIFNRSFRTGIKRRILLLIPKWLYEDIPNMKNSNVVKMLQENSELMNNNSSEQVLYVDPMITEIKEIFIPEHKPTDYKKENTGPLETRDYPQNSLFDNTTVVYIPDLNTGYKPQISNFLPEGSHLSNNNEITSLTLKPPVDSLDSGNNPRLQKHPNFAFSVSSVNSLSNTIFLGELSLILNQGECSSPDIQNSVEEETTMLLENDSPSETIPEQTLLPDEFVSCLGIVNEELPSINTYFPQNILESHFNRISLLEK

Ki: 469 pM
Substance: IL12p80 (from UniProt P29460 23-328) (ligand)
